According to patent US20230076643A1:

Biological target: T1, CD6 (UniProt P30203)
T1 sequence (looked up): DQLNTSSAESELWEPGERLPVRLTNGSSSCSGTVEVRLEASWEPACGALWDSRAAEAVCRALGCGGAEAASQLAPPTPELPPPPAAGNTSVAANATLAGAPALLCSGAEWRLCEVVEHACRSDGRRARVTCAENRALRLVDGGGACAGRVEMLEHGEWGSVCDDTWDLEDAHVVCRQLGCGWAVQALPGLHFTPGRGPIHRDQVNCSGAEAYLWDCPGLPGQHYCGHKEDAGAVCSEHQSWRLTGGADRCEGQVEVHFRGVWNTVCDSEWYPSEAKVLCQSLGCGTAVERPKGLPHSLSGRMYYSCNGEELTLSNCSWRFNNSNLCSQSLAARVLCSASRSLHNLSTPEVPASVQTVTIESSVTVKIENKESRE
Test: binding assay of FIG. 7 on CAR Tregs; method not described

B1: CD6 CAR (representative CD6 CAR, expressed on Treg) (protein, part only; not given: hinge, transmembrane and signalling domains, part only)
scFv, part: EVQLVESGGGLVKPGGSLKLSCAASGFKFSRYAMSWVRQAPGKRLEWVATISSGGSYIYYPDSVKGRFTISRDNVKNTLYLQMSSLRSEDTAMYYCARRDYDLDYFDSWGQGTLVTVSSGSTSGGGSGGGSGGGGSSDIQMTQSPSSLSASVGDRVTITCKASRDIRSYLTWYQQKPGKAPKTLIYYATSLADGVPSRFSGSGSGQDYSLTISSLESDDTATYYCLQHGESPFTFGSGTKLEIKRA
B1 was tested. Which Kd did it give?
The Kd was 50 nM.
